{"source": "patent US20240174727A1", "about": "“LONG-ACTING NATRIURETIC PEPTIDES AND USES THEREOF” (Eli Lilly and Company, priority 2022, published 2024)", "binders": {"B1": {"name": "Example 38 (peptide)", "peptide": "XEKEKEKGSXRRSSCFGGRIDRIGHYSGLGCPSFRHGGPSSGAPPPS", "modifications": "HOOC-(CH2)18-CO-(γGlu)-EKEKEKGS-4Pal-RRSS[CFGGRIDRIGHYSGLGC]PSFRHGGPSSGAPPPS-NH2; disulfide linkage between the bracketed Cys"}, "B2": {"name": "Example 55 (peptide)", "peptide": "B1 peptide with S9E, X10K, R11P", "modifications": "HOOC-(CH2)18-CO-(γGlu)-EKEKEKGEKPRSS[CFGGRIDRIGHYSGLGC]PSFRHGGPSSGAPPPS-NH2; disulfide linkage between the bracketed Cys"}, "B3": {"name": "Example 37 (peptide)", "peptide": "XEKEKEKGSXRRSSCFGGRIDRIGHQSGLGCPSFRHGPSSGAPPPS", "modifications": "HOOC-(CH2)18-CO-(γGlu)-EKEKEKGS-4Pal-RRSS[CFGGRIDRIGHQSGLGC]PSFRH-GPSSGAPPPS-NH2; disulfide linkage between the bracketed Cys"}, "B4": {"name": "Example 47 (peptide)", "peptide": "XEKEKEKGRSSCFGGKIDRIGHYSGLGCPSFRHKGPSSGAPPPS", "modifications": "HOOC-(CH2)18-CO-(γGlu)-EKEKEKGRSS[CFGGKIDRIGHYSGLGC]PSFRHKGPSSGAPPPS-NH2; disulfide linkage between the bracketed Cys"}, "B5": {"name": "Example 77 (peptide)", "peptide": "EKXRSSCFGGRIDRIGHYSGLGCPSFRHGGKSSGAPPPS", "modifications": "HOOC-(CH2)18-CO-(γGlu)-EKEKEKG-PEG12-EK-βAla-RSS[CFGGRIDRIGHYSGLGC]PSFRHGGKSSGAPPPS-NH2; thioacetal linkage between the bracketed Cys"}, "B6": {"name": "Example 78 (peptide)", "peptide": "B5 peptide", "modifications": "HOOC-(CH2)18-CO-(γGlu)-EKEKEKG-PEG24-EK-βAla-RSS[CFGGRIDRIGHYSGLGC]PSFRHGGKSSGAPPPS-NH2; thioacetal linkage between the bracketed Cys"}, "B7": {"name": "Example 50 (peptide)", "peptide": "XEKEKEKGEKGRSSCFGGRIDRIGHYSGLGCPSFRHKGGPSSGAPPPS", "modifications": "HOOC-(CH2)18-CO-(γGlu)-EKEKEKGEKGRSS[CFGGRIDRIGHYSGLGC]PSFRHKGGPSSGAPPPS-NH2; disulfide linkage between the bracketed Cys"}, "B8": {"name": "Example 85 (peptide)", "peptide": "XEKEKEKGEKXRSSCFGKRIDRIGHQSGLGCPSFRHGGKSSGAPPPS", "modifications": "HOOC-(CH2)18-CO-(γGlu)-EKEKEKGEK-βAla-RSS[CFGKRIDRIGHQSGLGC]PSFRHGGKSSGAPPPS-NH2; thioacetal linkage between the bracketed Cys"}, "B9": {"name": "Example 45 (peptide)", "peptide": "B1 peptide with S9E, X10K, R11G, R19K", "modifications": "HOOC-(CH2)18-CO-(γGlu)-EKEKEKGEKGRSS[CFGGKIDRIGHYSGLGC]PSFRHGGPSSGAPPPS-NH2; disulfide linkage between the bracketed Cys"}, "B10": {"name": "Example 49 (peptide)", "peptide": "B1 peptide with S9E, X10K, R11E", "modifications": "HOOC-(CH2)18-CO-(γGlu)-EKEKEKGEKERSS[CFGGRIDRIGHYSGLGC]PSFRHGGPSSGAPPPS-NH2; disulfide linkage between the bracketed Cys"}, "B11": {"name": "Example 97 (peptide)", "peptide": "SXRRSSCFGGRIDRIGHYSGLGCPSFRHGGPPSXKPPPK", "modifications": "HOOC-(CH2)18-CO-(γGlu)-EKEKEKG-(AEEA)6-S-4Pal-RRSS[CFGGRIDRIGHYSGLGC]PSFRHGGPPS-Aib-KPPPK-NH2; thioacetal linkage between the bracketed Cys"}}, "note": "Numbering of substitutions follows the chain as printed.", "data": [{"molecular_target": "T1, rat NPRA (rat, UniProt P18910 29-1057)", "T1 sequence (looked up)": "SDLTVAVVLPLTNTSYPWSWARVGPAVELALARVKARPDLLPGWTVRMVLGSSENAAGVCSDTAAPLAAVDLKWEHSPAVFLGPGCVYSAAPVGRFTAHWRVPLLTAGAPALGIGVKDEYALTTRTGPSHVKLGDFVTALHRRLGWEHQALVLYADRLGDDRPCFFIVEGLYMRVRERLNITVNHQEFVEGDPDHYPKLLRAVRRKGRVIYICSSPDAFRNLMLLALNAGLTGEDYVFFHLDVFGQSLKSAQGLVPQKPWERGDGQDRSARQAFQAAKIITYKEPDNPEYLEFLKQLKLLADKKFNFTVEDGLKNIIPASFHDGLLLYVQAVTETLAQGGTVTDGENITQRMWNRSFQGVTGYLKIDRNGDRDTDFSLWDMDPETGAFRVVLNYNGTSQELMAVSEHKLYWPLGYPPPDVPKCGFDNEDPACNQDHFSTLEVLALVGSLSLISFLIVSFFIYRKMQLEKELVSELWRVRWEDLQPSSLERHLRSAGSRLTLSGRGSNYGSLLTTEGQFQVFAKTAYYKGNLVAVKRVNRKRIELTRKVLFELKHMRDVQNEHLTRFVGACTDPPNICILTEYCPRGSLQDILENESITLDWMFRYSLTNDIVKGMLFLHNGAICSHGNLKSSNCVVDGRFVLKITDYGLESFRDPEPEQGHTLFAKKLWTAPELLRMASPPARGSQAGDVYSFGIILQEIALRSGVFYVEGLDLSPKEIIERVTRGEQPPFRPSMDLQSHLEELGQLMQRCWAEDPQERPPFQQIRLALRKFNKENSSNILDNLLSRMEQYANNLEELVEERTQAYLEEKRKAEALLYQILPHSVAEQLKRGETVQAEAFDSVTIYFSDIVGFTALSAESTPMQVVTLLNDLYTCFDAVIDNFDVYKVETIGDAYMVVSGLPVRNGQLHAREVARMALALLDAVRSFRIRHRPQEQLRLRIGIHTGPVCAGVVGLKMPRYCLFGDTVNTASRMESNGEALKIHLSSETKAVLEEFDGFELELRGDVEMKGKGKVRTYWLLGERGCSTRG", "assay": "cell-based or functional assay", "units": {"cGMP Assay (EC50, pM) w/BSA": "pM", "cGMP Assay (EC50, pM) w/Casein": "pM"}, "values": [{"binder": "B1", "cGMP Assay (EC50, pM) w/BSA": 40500}, {"binder": "B2", "cGMP Assay (EC50, pM) w/Casein": 493}, {"binder": "B3", "cGMP Assay (EC50, pM) w/BSA": 84600}]}, {"molecular_target": "T2, human NPRA (human, UniProt P16066 33-1061)", "T2 sequence (looked up)": "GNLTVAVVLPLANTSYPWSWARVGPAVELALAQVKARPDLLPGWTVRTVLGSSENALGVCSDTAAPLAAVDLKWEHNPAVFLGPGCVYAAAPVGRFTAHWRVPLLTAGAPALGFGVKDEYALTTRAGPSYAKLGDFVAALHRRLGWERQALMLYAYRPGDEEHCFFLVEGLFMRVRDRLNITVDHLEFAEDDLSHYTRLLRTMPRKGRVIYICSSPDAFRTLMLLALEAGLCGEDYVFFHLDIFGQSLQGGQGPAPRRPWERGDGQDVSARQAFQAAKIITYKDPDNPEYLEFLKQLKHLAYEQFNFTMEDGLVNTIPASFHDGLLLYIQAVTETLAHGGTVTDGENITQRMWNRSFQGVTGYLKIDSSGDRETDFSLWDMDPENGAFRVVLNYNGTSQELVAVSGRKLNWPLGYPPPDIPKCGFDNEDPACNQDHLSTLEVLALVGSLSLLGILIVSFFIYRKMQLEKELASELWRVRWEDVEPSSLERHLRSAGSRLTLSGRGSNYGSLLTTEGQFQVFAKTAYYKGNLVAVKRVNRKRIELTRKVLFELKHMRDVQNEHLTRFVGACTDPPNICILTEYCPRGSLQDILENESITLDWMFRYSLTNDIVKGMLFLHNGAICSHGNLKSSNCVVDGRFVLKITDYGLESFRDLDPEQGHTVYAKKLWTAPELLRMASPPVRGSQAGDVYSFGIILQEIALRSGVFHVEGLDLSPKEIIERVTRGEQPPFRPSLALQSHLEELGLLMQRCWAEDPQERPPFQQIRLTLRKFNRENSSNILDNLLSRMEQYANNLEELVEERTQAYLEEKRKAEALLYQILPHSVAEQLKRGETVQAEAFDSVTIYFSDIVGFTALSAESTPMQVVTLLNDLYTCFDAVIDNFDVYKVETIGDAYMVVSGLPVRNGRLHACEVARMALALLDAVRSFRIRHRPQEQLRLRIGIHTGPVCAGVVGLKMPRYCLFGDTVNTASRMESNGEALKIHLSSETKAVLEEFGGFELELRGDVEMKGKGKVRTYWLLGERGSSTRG", "assay": "cell-based or functional assay", "units": {"cGMP Assay (EC50, pM) w/Casein": "pM", "cGMP Assay (EC50, pM) w/BSA": "pM"}, "values": [{"binder": "B4", "cGMP Assay (EC50, pM) w/Casein": 299}, {"binder": "B5", "cGMP Assay (EC50, pM) w/Casein": 1270}, {"binder": "B6", "cGMP Assay (EC50, pM) w/BSA": 19700}, {"binder": "B7", "cGMP Assay (EC50, pM) w/Casein": 614}, {"binder": "B8", "cGMP Assay (EC50, pM) w/Casein": 361}, {"binder": "B9", "cGMP Assay (EC50, pM) w/BSA": 25200}, {"binder": "B10", "cGMP Assay (EC50, pM) w/Casein": 299}, {"binder": "B11", "cGMP Assay (EC50, pM) w/Casein": 720}]}]}
